These results are taken from the supplement of paper PMC10724198.

± gives the standard deviation of the averaged measurements.
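Note: PSI is a weighted mean of sequencing reads over stability bins, variants kept only with over 10 reads, mCherry proximal and sfGFP distal, peptide attached via GGGS linker.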

The test system of the series is Saccharomyces cerevisiae. The series can be described thus: protein stability index of tFT-peptide fusion (C-terminal peptide) (PSI (0-1 scale)); higher = more stable (slower turnover). The note with it: genetic background: wild type; temperature: 30 C. The protocol:
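Multiplexed protein stability (MPS) profiling in S. cerevisiae. Random 12-aa peptides (tFT-X12 library) are fused to the C-terminus of a sfGFP-mCherry tandem fluorescent timer, after mCherry and a GGGS linker. Cells are FACS-sorted into 8 mCherry/sfGFP bins and deep-sequenced. The protein stability index (PSI) is the read-weighted bin average, scaled from 0 (unstable) to 1 (stable). Only peptides with >10 reads are reported; cells were grown at 30 °C in SC-His with glucose.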
Sequence DCYFNVHFKSIG displayed a protein stability index of 0.654 ± 0.074.

In turn, DDATLAVCRGWV displayed a protein stability index of 0.731 ± 0.028.

For the sequence DDFPNKHVEPKA, the protein stability index is 0.658 ± 0.014.

DDGGSVTERDKS registered a protein stability index of 0.649 ± 0.007.

For DDPGPSTHPRSA, the protein stability index turned out to be 0.63 ± 0.0069.

DDWCLVGGLCDC returned a protein stability index of 0.684 ± 0.033.

On to DDWNLQEAQSLY, for which the protein stability index stood at 0.703 ± 0.053.

DERREADLYPGE displayed a protein stability index of 0.648 ± 0.059.

DERSWLPLFFST: the protein stability index turned out to be 0.695 ± 0.035.

As to DESWCVPCPSSL, the protein stability index came to 0.648 ± 0.0065.

Sequence DETRQTYRNRKG showed a protein stability index of 0.728 ± 0.12.

Consider DEVLVSGGKWWE, for which the protein stability index turned out to be 0.73 ± 0.1.

Regarding DFCPVYRVIIWN, the protein stability index was 0.646 ± 0.029.

In the case of DFSNDCLRVLGD, the protein stability index worked out at 0.673 ± 0.021.

As for DFSSLIISFPFI, the protein stability index was found to be 0.627 ± 0.059.

Consider DFVGVVGFLVAG, for which the protein stability index came to 0.65 ± 0.032.

Turning to DGARECRDDVCS, the protein stability index was found to be 0.675 ± 0.017.

On to DGAVRLGVGGLG, for which the protein stability index amounted to 0.682 ± 0.041.

DGCLTKPGQCHG gave a protein stability index of 0.646 ± 0.013.

As to DGGGGGGAPRVR, the protein stability index came to 0.715 ± 0.11.

Sequence DGGRGQGMLGGS gave a protein stability index of 0.662 ± 0.063.

Consider DGGSGQGMFGGS, for which the protein stability index worked out at 0.611 ± 0.039.

DGKNSGHGLAKT: the protein stability index came to 0.702 ± 0.087.

With DGSFWKGQGAGV, the protein stability index amounted to 0.671 ± 0.011.

Regarding DGTTAIAGPHPT, the protein stability index was found to be 0.629 ± 0.052.

With DGVQTVPFSCRL, the protein stability index came out at 0.773 ± 0.28.

DHIALIWGCSNF showed a protein stability index of 0.703 ± 0.06.

DIAFFEGSGGTM showed a protein stability index of 0.675 ± 0.096.

DIRRSSMFKPKS came in with a protein stability index of 0.702 ± 0.074.

Regarding DIYNRNKRRDIT, the protein stability index is 0.644 ± 0.0067.

In the case of DKGTDKDDVKIM, the protein stability index is 0.686 ± 0.011.

In turn, DLCLRSTLPLFL registered a protein stability index of 0.585 ± 0.016.

As to DLCSPWGVDGVK, the protein stability index is 0.696 ± 0.00079.

On to DLILECRYEVGV, for which the protein stability index was 0.667 ± 0.053.

Consider DLLAVPALTLHL, for which the protein stability index was determined as 0.677 ± 0.14.

As for DLLYGLAMSLSN, the protein stability index stood at 0.704 ± 0.012.

DLQKKKEILSQK yielded a protein stability index of 0.707 ± 0.029.

Regarding DLSFVLAPFVSP, the protein stability index was determined as 0.6683 ± 0.0038.

In turn, DLSVSDGCVAFG gave a protein stability index of 0.64 ± 0.048.

As for DLTRALQAGHDR, the protein stability index was 0.695 ± 0.039.

DLVNTVCTVLDN showed a protein stability index of 0.6836 ± 0.0039.

As to DLWTRGAVHRKA, the protein stability index came out at 0.6756 ± 0.0061.

As for DMDLAVTRHIRS, the protein stability index turned out to be 0.718 ± 0.1.

DPAHPRPFDCPL had a protein stability index of 0.709 ± 0.013.

In the case of DPLIILLSSVKL, the protein stability index came to 0.718 ± 0.0099.

Take DPPPLPPAHSAS: the protein stability index came out at 0.658 ± 0.034.

The sequence DPVGFSEMYLRV returned a protein stability index of 0.705 ± 0.0078.

In the case of DQLETTSAPLPG, the protein stability index is 0.711 ± 0.044.

Sequence DQRRKKKPIKGN registered a protein stability index of 0.736 ± 0.12.

DQRRWLWGGILK came in with a protein stability index of 0.707 ± 0.018.

Take DRFLPPALVMYI: the protein stability index was 0.566 ± 0.038.

Sequence DRGWPHTYNTIL had a protein stability index of 0.639 ± 0.1.

DRHLNRPRVKKR registered a protein stability index of 0.758 ± 0.076.

Sequence DRPDLVLAGVCG gave a protein stability index of 0.756 ± 0.06.

DRRETASGVSVR had a protein stability index of 0.682 ± 0.025.

Consider DRRRVIIKENKA, for which the protein stability index was 0.675 ± 0.024.

With DRTNIIGVIDDL, the protein stability index worked out at 0.753 ± 0.05.

In turn, DRVGGCESRAGR yielded a protein stability index of 0.651 ± 0.04.

For DSFGSERYEPCK, the protein stability index was determined as 0.622 ± 0.0097.

As for DSFLFVPREVAD, the protein stability index came to 0.687 ± 0.013.

The sequence DSRFMLYIHSSR returned a protein stability index of 0.7132 ± 0.0038.

Turning to DSSGATGLLYML, the protein stability index was determined as 0.746 ± 0.022.

Sequence DSSYVYHFRCVS registered a protein stability index of 0.62055 ± 0.00019.

The sequence DTDDARGVWGSV yielded a protein stability index of 0.7151 ± 0.0058.
